According to publication doi:10.1101/2022.04.04.486996 (bioRxiv, 2022):
Each block holds one binder with its values, some of them ahead of it.

Assays:
[1] = target: T1, E. coli ketosynthase FabF (E. coli, UniProt P0AAI5 1-413); test: cross-linking
T1 sequence: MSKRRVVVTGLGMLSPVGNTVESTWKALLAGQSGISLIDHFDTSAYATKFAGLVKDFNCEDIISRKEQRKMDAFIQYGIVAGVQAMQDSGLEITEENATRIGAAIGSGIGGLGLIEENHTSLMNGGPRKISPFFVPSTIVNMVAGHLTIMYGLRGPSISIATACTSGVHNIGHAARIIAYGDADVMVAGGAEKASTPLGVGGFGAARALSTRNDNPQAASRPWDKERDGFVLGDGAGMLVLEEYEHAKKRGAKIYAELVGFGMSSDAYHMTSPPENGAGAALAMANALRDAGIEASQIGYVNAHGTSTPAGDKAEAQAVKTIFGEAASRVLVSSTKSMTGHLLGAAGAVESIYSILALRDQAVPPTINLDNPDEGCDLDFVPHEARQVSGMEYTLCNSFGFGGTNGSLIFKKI

crystal structure = target: the molecule itself; test: crystal structure

- binding result [1]: binds
B1: ACP loaded with the (Z)-C14Cl chloroacrylate crosslinking probe (crypto-ACP) (natural protein, E. coli)
chain: STIEERVKKIIGEQLGVKQEEVTNNASFVEDLGADSLDTVELVMALEEEFDTEIPDEEAEKITTVQAAIDYINGHQA
modifications: S36 carries the 4'-phosphopantetheine analogue with the (Z)-C14Cl (C14-chloroacrylate) crosslinking probe

B2: E. coli ketosynthase FabB (enzyme)
chain: MKRAVITGLGIVSSIGNNQQEVLASLREGRSGITFSQELKDSGMRSHVWGNVKLDTTGLIDRKVVRFMSDASIYAFLSMEQAIADAGLSPEAYQNNPRVGLIAGSGGGSPRFQVFGADAMRGPRGLKAVGPYVVTKAMASGVSACLATPFKIHGVNYSISSACATSAHCIGNAVEQIQLGKQDIVFAGGGEELCWEMACEFDAMGALSTKYNDTPEKASRTYDAHRDGFVIAGGGGMVVVEELEHALARGAHIYAEIVGYGATSDGADMVAPSGEGAVRCMKMAMHGVDTPIDYLNSHGTSTPVGDVKELAAIREVFGDKSPAISATKAMTGHSLGAAGVQEAIYSLLMLEHGFIAPSINIEELDEQAAGLNIVTETTDRELTTVMSNSFGFGGTNATLVMRKLKD
- stoichiometry N (crystal structure): 2
